Common to all, as to test: SPR, antibody captured, C2 as analyte;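 note: biacore SPR at 37 °C, anti-C2 mAbs captured via goat anti-human IgG on CM5 chips, double-referenced sensorgrams fit to a 1:1 kinetic or steady-state model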
Background: Surface plasmon resonance follows binding to a sensor surface in real time, without labels.

One test concerns the target T1, human C2 N703A (human, UniProt P06681 21-752).
T1 sequence: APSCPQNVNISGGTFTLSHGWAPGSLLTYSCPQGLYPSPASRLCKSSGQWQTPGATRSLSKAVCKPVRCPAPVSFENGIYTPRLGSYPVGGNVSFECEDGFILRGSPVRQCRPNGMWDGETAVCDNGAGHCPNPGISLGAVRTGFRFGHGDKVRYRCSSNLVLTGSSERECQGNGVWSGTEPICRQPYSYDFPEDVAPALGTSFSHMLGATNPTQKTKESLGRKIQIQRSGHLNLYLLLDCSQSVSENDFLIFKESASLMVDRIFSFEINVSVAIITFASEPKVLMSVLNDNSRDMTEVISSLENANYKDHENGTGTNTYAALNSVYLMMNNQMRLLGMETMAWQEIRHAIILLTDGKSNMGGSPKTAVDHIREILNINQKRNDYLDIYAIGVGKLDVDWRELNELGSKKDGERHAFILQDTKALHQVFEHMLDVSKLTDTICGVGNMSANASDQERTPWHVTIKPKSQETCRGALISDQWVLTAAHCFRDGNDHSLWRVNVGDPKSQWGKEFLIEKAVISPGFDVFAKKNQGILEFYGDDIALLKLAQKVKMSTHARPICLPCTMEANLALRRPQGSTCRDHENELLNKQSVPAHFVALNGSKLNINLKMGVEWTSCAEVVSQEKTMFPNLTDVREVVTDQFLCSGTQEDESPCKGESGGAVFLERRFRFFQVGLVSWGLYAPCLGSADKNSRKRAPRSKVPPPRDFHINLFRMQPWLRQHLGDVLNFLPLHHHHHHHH

Another test has as its target T2, human C2 S720A (human, UniProt P06681 21-752).
T2 sequence: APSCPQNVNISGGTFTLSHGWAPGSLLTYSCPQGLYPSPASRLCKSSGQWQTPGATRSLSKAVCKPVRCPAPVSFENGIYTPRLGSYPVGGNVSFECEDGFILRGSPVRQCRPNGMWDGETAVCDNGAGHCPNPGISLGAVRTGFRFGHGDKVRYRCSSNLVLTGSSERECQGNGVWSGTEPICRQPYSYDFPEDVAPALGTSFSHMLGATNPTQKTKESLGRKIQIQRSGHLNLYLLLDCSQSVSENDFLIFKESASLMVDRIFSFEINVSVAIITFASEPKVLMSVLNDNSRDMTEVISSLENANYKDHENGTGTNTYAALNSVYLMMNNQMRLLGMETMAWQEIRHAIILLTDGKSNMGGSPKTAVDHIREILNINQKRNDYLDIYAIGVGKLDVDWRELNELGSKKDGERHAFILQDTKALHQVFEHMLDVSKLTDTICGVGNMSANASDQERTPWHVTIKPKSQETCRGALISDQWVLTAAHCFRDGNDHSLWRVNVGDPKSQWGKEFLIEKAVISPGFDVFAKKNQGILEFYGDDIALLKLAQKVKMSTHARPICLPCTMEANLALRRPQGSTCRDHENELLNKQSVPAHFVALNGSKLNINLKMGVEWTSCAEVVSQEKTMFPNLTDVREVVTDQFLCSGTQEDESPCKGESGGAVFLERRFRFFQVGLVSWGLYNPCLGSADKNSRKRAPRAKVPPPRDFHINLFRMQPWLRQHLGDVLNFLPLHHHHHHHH

The next test deals with T3, human C2 G432A (human, UniProt P06681 21-752).
T3 sequence: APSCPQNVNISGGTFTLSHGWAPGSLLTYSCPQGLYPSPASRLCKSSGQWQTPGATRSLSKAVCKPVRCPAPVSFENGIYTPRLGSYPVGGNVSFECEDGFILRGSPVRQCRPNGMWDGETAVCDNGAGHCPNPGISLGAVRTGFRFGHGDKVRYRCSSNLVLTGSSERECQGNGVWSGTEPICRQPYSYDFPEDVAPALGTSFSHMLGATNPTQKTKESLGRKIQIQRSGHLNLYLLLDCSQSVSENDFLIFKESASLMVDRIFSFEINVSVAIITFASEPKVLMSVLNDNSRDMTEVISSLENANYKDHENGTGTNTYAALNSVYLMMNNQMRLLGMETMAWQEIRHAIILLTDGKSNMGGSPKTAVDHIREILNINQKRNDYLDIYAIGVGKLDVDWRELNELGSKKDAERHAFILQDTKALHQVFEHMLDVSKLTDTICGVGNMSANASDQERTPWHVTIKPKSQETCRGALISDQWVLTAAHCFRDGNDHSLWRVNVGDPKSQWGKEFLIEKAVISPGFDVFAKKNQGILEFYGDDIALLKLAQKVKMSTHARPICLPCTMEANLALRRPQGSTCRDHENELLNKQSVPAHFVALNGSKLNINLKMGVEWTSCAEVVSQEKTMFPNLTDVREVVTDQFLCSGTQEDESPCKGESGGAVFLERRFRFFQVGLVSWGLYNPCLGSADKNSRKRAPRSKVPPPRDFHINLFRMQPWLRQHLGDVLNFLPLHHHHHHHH

Another test addresses T4, human C2 M648A (human, UniProt P06681 21-752).
T4 sequence: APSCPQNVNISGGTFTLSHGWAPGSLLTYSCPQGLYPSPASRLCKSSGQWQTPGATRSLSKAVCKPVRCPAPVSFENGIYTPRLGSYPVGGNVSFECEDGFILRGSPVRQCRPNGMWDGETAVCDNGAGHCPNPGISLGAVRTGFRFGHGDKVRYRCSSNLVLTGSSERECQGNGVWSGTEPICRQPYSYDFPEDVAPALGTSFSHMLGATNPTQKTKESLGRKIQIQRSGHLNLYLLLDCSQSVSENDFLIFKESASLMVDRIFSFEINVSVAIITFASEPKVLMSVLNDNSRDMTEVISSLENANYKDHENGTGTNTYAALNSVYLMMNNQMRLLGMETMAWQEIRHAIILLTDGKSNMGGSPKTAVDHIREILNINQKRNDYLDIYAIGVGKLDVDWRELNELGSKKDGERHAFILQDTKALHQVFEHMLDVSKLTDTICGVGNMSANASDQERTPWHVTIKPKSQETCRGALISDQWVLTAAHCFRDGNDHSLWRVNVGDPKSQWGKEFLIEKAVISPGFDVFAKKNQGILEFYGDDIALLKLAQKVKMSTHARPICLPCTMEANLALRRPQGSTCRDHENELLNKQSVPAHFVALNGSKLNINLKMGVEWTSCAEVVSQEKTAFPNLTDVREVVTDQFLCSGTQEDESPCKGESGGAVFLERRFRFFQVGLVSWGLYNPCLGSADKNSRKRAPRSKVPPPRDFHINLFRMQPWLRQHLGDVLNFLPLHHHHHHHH

Broadly, the Kd is the equilibrium constant for the complex coming apart. Low values mean higher affinity, high ones lower affinity.

Description for human C2 G432A: (§1) Surface plasmon resonance (SPR, Biacore) was used for all binding affinity analyses. In brief, goat anti-human IgG was directly immobilised onto the carboxymethyl dextran surface of CM5 sensorchips to approximately 12,000 RU using standard NHS/EDC chemistry at pH 5. The immobilised antibody surface was pre-conditioned with ten injections of polyclonal human IgG (Privigen 60 s) prepared at 1 μg/mL. Ligands (anti-C2 mAbs) were captured at the beginning of each cycle as described below. An adjacent spot or flow cell in which only Polyclonal IgG was capture was used as a reference surface. The goat anti-human IgG Fc antibody surface was regenerate in 100 mM H3PO4, injected for 45 seconds at the end of each cycle. Experiments were performed at 37° C. and the flow rate of each experiment was kept constant at 30 μL/min.
(§2) Sensogram data was double-referenced against a reference anti-IgG surface (i.e. minus anti-C2 mAb) and blank buffer injections obtained within each experiment. The binding data was fit to 1:1 (kinetic or steady-state) model using local Rmax and null refraction index (RI=0) when appropriate. Buffers and solutions were filtered (0.22 μm) prior to use.
Description for human C2 M648A: as §1, §2
Description for human C2 N703A: as §1, §2
Description for human C2 S720A: as §1, §2

B1: RF16-226 (antibody, human IgG4 S228P, lambda)
heavy: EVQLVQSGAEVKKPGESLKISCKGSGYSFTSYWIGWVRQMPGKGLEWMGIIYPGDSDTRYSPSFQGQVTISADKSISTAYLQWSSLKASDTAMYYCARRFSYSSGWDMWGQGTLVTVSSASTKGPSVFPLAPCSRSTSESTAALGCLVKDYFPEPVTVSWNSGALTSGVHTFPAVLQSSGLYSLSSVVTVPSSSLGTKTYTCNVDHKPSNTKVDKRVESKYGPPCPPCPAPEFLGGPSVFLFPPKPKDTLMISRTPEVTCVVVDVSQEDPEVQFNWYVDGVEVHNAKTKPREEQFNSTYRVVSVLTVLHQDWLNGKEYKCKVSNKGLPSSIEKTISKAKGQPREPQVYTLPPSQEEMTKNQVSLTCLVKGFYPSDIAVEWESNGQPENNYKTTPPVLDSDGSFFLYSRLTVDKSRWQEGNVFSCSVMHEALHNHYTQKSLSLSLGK
light: SYELTQPPSVSVSPGQTARITCSGDALTSKYVAWYQQKSGLAPLLVIYEDTRRPSGIPAKFSGSSSGSVATLTISGAHGDDEADYYCYSTDASGHQRVFGGGTKLTVLSQPKAAPSVTLFPPSSEELQANKATLVCLISDFYPGAVTVAWKADGSPVKAGVETTKPSKQSNNKYAASSYLSLTPEQWKSHRSYSCQVTHEGSTVEKTVAPTECS
notes: pH-dependent anti-C2 antibody from a phage display library; also called WT
B1: the Kd with human C2 N703A stood at 292 nM; in the test with human C2 S720A, 14.6 nM; with human C2 G432A, 6.6 nM; in the test with human C2 M648A it was 203 nM.

Source of the values: patent publication US20220332804A1 (CSL INNOVATION, published 2022).
